Values joined by “and” are separate entries in the source; they are usually repeats but may differ in a detail not shown here. Identical values can stand only once.
B1: recombinant wild-type trichocystatin-2 (rTC-2) (natural protein)
chain: MSCGGGCCCGAAKPANVQDEHVIQAFKDAIALGNQKNGTTLEYIQLLSATQKVVSGYIFEGVVKTNDGDYKVKIWCKPGNTEKELQLFEKA
notes: trichocystatin-2 (TC-2), Trichomonas vaginalis, TrichDB TVAG_272260; 10-kDa cystatin of the stefin type; the TC-2 gene cloned in pCold I as in Puente-Rivera et al., 2014; No tag removal is described; Mixture of monomer, dimer and higher forms in SEC

Columns and labels:
[1] = molecular target: recombinant TC-2Δ11 deletion mutant (rTC-2Δ11) (Trichomonas vaginalis) (UniProt A2FXT2); experiment: SEC; analytical SEC, Superdex 200 pg HiLoad 26/600, 5 mg protein loaded, 50 mM Tris-HCl pH 8.0, 100 mM NaCl, 0.02% NaN3, room temperature (23-25°C); samples stored 1 month at 4°C
[2] = molecular target: recombinant TC-2Δ11 deletion mutant (rTC-2Δ11) (Trichomonas vaginalis) (UniProt A2FXT2); experiment: SEC; analytical SEC, Superdex 200 pg HiLoad 26/600, 5 mg protein loaded, 50 mM Tris-HCl pH 8.0, 100 mM NaCl, 0.02% NaN3, room temperature (23-25°C); samples stored 3 months at 4°C
A2FXT2 = experiment: SEC; analytical SEC, Superdex 200 pg HiLoad 26/600, 5 mg protein loaded, 50 mM Tris-HCl pH 8.0, 100 mM NaCl, 0.02% NaN3, room temperature (23-25°C); samples stored 1 month at 4°C
[3] = molecular target: the molecule itself; experiment: SEC; analytical SEC, Superdex 200 pg HiLoad 26/600, 5 mg protein loaded, 50 mM Tris-HCl pH 8.0, 100 mM NaCl, 0.02% NaN3, room temperature (23-25°C); samples stored 3 months at 4°C
[4] = molecular target: the molecule itself; experiment: SEC; analytical SEC, Superdex 200 pg HiLoad 26/600, 5 mg protein loaded, 50 mM Tris-HCl pH 8.0, 100 mM NaCl, 0.02% NaN3, room temperature (23-25°C); samples stored 1 month at 4°C

Molecule | Area (%) of the dimer peak [1] [%] | stoichiometry N [1] | Area (%) of the dimer peak [2] [%] | stoichiometry N [2] | Area (%) of the peak of high molecular weight aggregates (A2FXT2) [%] | stoichiometry N [3] | stoichiometry N [4]
recombinant TC-2Δ11 deletion mutant (rTC-2Δ11) (from UniProt A2FXT2 12-91) (domain or fragment) | 19.5 | 2 | 25.8 | 2 | – | – | –
B1 | – | – | – | – | 2.2 | 2 and 4 | 2

From paper PMC11959277, “Trichocystatin-2 from Trichomonas vaginalis: role of N-terminal cysteines in aggregation, protease inhibition, and trichomonal cysteine protease-dependent cytotoxicity on HeLa cells” (Frontiers in Parasitology, 2025)
